Laboratory results reported in patent US20030194411A1.

Tests used:
[1] = target: MN-PND peptide … (HIV-1 MN strain); test: MN-PND ELISA, serum 1:20, day 0
[2] = target: MN-PND peptide … (HIV-1 MN strain); test: MN-PND ELISA, serum 1:100, day 0
[3] = target: MN-PND peptide … (HIV-1 MN strain); test: MN-PND ELISA, serum 1:500, day 0
[4] = target: MN-PND peptide … (HIV-1 MN strain); test: MN-PND ELISA, serum 1:1000, day 0
[5] = target: MN-PND peptide … (HIV-1 MN strain); test: MN-PND ELISA, serum 1:2500, day 0

Substance: guinea pig serum sample 0 (day 0, Example V) (antibody)
- O.D. [1]: 0.15 O.D.
- O.D. [2]: 0.07 O.D.
- O.D. [3]: 0.05 O.D.
- O.D. [4]: 0.05 O.D.
- O.D. [5]: 0.04 O.D.
